Biological target: ECOR31 mCpol (minimal CRISPR polymerase) with residual ENLYFQ cleavage site (E. coli ECOR31)
Assay: SEC; HiLoad 16/600 Superdex 200 pg, 20 mM Tris-HCl pH 8.0, 500 mM KCl, 10% glycerol, 1 mM TCEP; elution compared with a molecular weight standard

## ECOR31 mCpol (minimal CRISPR polymerase) with residual ENLYFQ cleavage site (enzyme)
  stoichiometry N: 2
